Data from patent US20240024520A1, “AUTONOMOUS KNOB DOMAIN PEPTIDES” (UCB BIOPHARMA SRL, priority 2020, published 2024).
Read-outs that look alike come from different tables or passages of the source. Bridge positions count the residues as written; N and C are the ends. Peptide text beside a SMILES is read from it.

Experiments:
Type in all cases: binding
C5 [1] = target: T1, C5 (Homo sapiens, UniProt P01031); test: Monoclonal phage screening ELISA, human C5
Protocol: (§1) For the C5 libraries, a single round of enrichment was performed with either human or rat C5 protein. […] Phage were blocked for 30 minutes. Biotinylated antigen was added to the blocked phage at a concentration of 100 nM and incubated at room temperature with mixing.
(§2) Colonies were picked into a 96-well culture plate containing selective medium 2TY supplemented with 1% Glucose and 100 μg/ml Carbenicillin and was incubated at 37° C. until wells reached mid-log phase of growth prior to addition of M13K07 helper phage. The block was incubated without shaking for 1 hour to achieve infection and phage production using continued culture in selective media supplemented with 50 μg/ml Kanamycin and 100 μg/ml Carbenicillin.
Binding to antigen was assessed by monoclonal phage ELISA, 96-well flat bottom Nunc MaxiSorp plates (Thermofisher) were coated with a 2.5 μg/ml solution of human, mouse, or rat serum albumin, human C5 or mouse C5 diluted with PBS, and left overnight at 4° C. Negative control plate and Anti-myc tag plate were also prepared.
(§3) Monoclonal phage rescue supernatants were blocked with an equal volume of a 2% milk (w/v) in PBS, for serum albumin proteins, or 2% BSA and 2% milk (w/v) in PBS solution. The coating solution was removed from coated Nunc plates and each plate was blocked with 1% BSA in PBS (for C5 libraries) or 1% milk powder (for albumin library). Both phage and Nunc plates were blocked for 1 hour at room temperature. Nunc plates were washed using a 96-well microplate washer (BioTek) with a PBS solution contain 0.1% Tween20 (Sigma Aldrich). 100 of blocked phage solution was added to each well of Nunc MaxiSorp plate and left shaking at room temperature for 1 hour. Plates were washed and dried as previously described. 100 of an Anti-M13-Horse radish peroxidase conjugated antibody (GE Healthcare) diluted (1:5,000) in a 1% BSA or milk solution was added to each well and left shaking at room temperature for 1 hour. Plates were washed again and 50 μL of TMB solution (Merck Millipore) was added to each well. Plates were left shaking for 10 minutes. Absorbance was measured at 630 nm and 490 nm. Binding signals were obtained where Absorbance at 630 nm was >3-times the signal upon irrelevant antigen.
(§4) By monoclonal phage ELISA the following ultralong CDR-H3 sequences were identified as binders (OD>0.2 AU): […]

rat C5 protein = rat C5 protein (Rattus norvegicus, UniProt P08650); test: Monoclonal phage screening ELISA, rat C5
Protocol: as §1, §2
[…] Negative control plate and Anti-myc tag plate were also prepared.
as §3, §4

C5 [2] = target: T1, C5; test: Biacore multi-cycle kinetics on human C5; conditions: for mean stoichiometric ratio: measured Rmax divided by theoretical Rmax; for koff: read-out: mean Koff; for kon: read-out: mean Kon
Protocol: Binding of knob domain peptides to human C5 was measured by SPR, using a multi-cycle kinetics method as follows:
Kinetics were measured using a Biacore 8K (GE Healthcare) with a CM5 chip, which was prepared as follows: EDC/NHS was mixed at 1:1 ratio (flow rate, 10 μL/min; contact time, 30 seconds), human C5 protein at 1 μg/mL in pH 4.5 sodium-acetate buffer, were injected over flow cell one only (flow rate, 10 μL/min; contact time, 60 seconds). Final immobilization levels in the range of 2000-3000 response units (RU) were obtained, to yield theoretical Rmax values of ˜50-60 RU. Serial dilutions of peptide were prepared in HBS-EP buffer and injected (flow rate, 30 μL/min; contact time, 240 seconds; dissociation time, 6000 seconds). After each injection, the surface was regenerated with two sequential injections of 2M MgCl2 (flow rate, […]; contact time, 30 seconds). Binding to the reference surface was subtracted, and the data were fitted to a single site binding model, using Biacore evaluation software.

[3] = knob domain of the anti-C5 ultralong CDR-H3
[4] = anti-C5 ultralong CDR-H3, binder = OD>0.2 AU
[5] = multi-cycle kinetics, n = 3 experiments

Sequence of rat C5 protein (P08650 19-674 limits assumed): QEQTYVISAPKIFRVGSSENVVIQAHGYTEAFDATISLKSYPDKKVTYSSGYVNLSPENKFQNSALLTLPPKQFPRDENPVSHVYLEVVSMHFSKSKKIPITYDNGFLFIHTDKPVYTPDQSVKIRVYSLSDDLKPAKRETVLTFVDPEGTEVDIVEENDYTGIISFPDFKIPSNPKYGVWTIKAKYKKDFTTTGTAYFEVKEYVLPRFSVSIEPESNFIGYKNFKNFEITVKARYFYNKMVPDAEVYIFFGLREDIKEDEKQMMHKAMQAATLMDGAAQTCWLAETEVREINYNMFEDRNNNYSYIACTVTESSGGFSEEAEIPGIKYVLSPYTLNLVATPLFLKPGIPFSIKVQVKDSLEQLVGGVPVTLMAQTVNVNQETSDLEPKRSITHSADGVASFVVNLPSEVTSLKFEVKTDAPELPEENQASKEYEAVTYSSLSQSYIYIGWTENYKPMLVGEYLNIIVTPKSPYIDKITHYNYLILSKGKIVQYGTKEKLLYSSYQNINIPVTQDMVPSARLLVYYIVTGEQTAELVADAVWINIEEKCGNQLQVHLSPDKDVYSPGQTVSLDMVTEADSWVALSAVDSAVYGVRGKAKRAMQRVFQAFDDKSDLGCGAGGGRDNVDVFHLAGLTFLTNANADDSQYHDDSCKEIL
Sequence of rat C5 protein (P08650 679-1681 limits assumed): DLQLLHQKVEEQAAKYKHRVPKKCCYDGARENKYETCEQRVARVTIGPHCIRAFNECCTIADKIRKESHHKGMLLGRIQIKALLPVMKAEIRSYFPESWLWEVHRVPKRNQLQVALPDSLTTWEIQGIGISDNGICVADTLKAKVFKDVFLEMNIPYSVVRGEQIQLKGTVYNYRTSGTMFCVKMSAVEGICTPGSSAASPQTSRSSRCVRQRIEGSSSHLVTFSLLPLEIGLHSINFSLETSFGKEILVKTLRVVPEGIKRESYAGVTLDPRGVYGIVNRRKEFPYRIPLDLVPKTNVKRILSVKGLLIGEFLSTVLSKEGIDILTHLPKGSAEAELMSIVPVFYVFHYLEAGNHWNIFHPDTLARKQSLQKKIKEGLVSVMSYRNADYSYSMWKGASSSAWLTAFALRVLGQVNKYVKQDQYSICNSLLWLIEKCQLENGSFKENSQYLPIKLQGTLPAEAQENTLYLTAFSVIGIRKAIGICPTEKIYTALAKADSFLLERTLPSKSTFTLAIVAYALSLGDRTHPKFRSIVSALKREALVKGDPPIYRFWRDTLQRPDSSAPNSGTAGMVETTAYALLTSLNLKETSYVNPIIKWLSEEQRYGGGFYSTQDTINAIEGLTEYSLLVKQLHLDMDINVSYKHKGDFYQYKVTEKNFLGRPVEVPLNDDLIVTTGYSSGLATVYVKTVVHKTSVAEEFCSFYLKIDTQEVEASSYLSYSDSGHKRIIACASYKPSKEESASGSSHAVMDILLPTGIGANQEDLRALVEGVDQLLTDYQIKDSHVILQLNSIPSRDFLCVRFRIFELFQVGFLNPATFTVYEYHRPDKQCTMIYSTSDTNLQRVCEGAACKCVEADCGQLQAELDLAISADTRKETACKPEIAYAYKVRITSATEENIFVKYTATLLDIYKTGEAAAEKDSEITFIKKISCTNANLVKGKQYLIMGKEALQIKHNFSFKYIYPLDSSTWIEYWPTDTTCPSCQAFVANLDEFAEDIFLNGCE
T1 sequence (P01031 19-1676): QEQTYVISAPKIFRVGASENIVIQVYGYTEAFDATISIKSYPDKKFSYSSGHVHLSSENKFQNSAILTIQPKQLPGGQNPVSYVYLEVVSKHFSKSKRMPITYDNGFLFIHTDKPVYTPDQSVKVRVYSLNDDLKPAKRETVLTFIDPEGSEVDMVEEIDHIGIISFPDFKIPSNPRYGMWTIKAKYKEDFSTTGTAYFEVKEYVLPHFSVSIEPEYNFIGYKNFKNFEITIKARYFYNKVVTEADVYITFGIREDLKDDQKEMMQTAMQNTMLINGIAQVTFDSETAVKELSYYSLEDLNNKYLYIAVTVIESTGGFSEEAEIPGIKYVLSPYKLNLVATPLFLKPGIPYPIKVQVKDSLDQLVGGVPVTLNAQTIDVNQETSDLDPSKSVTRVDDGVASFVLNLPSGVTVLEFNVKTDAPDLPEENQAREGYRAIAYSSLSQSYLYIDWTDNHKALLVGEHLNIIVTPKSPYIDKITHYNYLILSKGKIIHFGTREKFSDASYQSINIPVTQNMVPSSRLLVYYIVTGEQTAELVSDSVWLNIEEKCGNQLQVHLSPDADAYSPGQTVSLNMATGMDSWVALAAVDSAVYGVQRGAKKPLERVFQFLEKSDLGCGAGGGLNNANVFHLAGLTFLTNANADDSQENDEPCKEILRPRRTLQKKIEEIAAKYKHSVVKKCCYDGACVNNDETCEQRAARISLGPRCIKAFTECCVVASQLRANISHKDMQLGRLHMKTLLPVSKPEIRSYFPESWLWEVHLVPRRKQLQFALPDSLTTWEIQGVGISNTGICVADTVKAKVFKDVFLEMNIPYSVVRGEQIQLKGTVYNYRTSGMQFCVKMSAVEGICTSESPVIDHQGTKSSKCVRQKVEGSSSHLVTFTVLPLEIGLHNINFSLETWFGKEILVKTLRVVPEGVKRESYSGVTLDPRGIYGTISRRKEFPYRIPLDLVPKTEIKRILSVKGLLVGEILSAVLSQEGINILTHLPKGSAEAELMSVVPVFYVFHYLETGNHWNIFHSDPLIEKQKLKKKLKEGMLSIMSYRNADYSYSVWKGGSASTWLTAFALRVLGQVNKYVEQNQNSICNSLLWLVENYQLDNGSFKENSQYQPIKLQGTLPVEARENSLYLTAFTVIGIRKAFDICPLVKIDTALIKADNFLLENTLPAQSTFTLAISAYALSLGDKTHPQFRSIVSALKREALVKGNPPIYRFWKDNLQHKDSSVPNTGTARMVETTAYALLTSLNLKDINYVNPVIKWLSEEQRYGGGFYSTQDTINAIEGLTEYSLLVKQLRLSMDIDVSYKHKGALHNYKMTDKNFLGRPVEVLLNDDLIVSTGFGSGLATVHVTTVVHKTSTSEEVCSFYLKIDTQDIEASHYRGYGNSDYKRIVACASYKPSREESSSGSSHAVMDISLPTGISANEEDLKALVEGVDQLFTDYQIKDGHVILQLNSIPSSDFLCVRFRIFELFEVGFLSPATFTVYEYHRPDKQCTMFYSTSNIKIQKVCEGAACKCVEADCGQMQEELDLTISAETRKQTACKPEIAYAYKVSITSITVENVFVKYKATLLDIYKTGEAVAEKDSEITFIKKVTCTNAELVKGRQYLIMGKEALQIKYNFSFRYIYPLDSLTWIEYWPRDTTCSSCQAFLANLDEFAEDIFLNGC

595 (TCPSGCSWFSGCWDTYRCGPSVCCRDGRYGCAAIICRDT; Anti-C5 ultralong CDR-H3 knob domain) [compound 595]
Specificity (C5 [1]; [3]): Human and Rat
Specificity (rat C5 protein; [3]): Human and Rat

594 (TCPLGYDLNYRCDHFNTCRVEECCKNGVVNAYGICEYAGGSAT; Anti-C5 ultralong CDR-H3 knob domain) [compound 594]
Specificity (C5 [1]; [3]): Human and Rat
Specificity (rat C5 protein; [3]): Human and Rat

558 (TTVHQKTKKSCPLGYAINDRCDDLKTCGPDECCLNGVVNAYGICEYEGESATHTYELYVE; Anti-C5 ultralong CDR-H3) [compound 558]
Specificity (C5 [1]; [4]): Human and Rat
Specificity (rat C5 protein; [4]): Human and Rat

551 (TTVHQRTKKTCPLGYDLNYRCDHFNTCRVEECCKNGVVNAYGICEYAGGSATYTYEWYVD; Anti-C5 ultralong CDR-H3) [compound 551]
Specificity (C5 [1]; [4]): Human and Rat
Specificity (rat C5 protein; [4]): Human and Rat

553 (TTVHQKTKKTCPRGYHYNDRCEFFNTCRVEECCLNGVVNTYGICEYEGGSATYTYEWYVD; Anti-C5 ultralong CDR-H3) [compound 553]
Specificity (C5 [1]; [4]): Human and Rat
Specificity (rat C5 protein; [4]): Human and Rat

552 (TTVHQRTKEERTCPSGCSWFSGCWDTYRCGPSVCCRDGRYGCAAIICRDTYEWYVD; Anti-C5 ultralong CDR-H3) [compound 552]
Specificity (C5 [1]; [4]): Human and Rat
Specificity (rat C5 protein; [4]): Human and Rat

557 (TTVHLKTKKSCPLGYAINDRCDDLKTCGPDECCLNGVVNAYGICEYEGESATHTYEWYVD; Anti-C5 ultralong CDR-H3) [compound 557]
Specificity (C5 [1]; [4]): Human and Rat
Specificity (rat C5 protein; [4]): Human and Rat

599 (SCPLGYAINDRCDDLKTCGPDECCLNGVVNAYGICEYEGESAT; Anti-C5 ultralong CDR-H3 knob domain) [compound 599]
Specificity (C5 [1]; [3]): Human and Rat
Specificity (rat C5 protein; [3]): Human and Rat

597 (TCPRGYHYNDRCDFFNTCRVEECCLNGVVNTYGICEYEGGSAT; Anti-C5 ultralong CDR-H3 knob domain) [compound 597]
Specificity (C5 [1]; [3]): Human and Rat
Specificity (rat C5 protein; [3]): Human and Rat

598 (SCPDGYGYGDGYCYDSGCSASDCYGVDALYSYGHCGCSIYTERPR; Anti-C5 ultralong CDR-H3 knob domain) [compound 598]
Specificity (C5 [1]; [3]): Human and Rat
Specificity (rat C5 protein; [3]): Human and Rat

CC[C@H](C)[C@@H]1NC(=O)[C@H](C)NC(=O)[C@H](C(C)C)NC(=O)CNC(=O)[C@@H]2CSSC[C@@H](C(=O)NCC(=O)N[C@@H](Cc3c[nH]cn3)C(=O)N[C@@H](Cc3ccccc3)C(=O)N[C@@H](CC(C)C)C(=O)N[C@@H](CC(N)=O)C(=O)N[C@@H](CO)C(=O)NCC(=O)N3CCC[C@H]3C(=O)N[C@@H](CC(N)=O)C(=O)N[C@H](C(=O)N[C@@H](CO)C(=O)N3CCC[C@H]3C(=O)N[C@@H](Cc3ccc(O)cc3)C(=O)N[C@H](C(=O)N[C@@H](CO)C(=O)N[C@H](C(=O)O)[C@@H](C)O)C(C)C)[C@@H](C)CC)NC(=O)CNC(=O)[C@H](C)NC(=O)[C@H](CCCNC(=N)N)NC(=O)CNC(=O)[C@H](CSSC[C@H](NC(=O)[C@@H](N)[C@@H](C)O)C(=O)N3CCC[C@H]3C(=O)N[C@@H](CCC(=O)O)C(=O)NCC(=O)N[C@@H](Cc3c[nH]c4ccccc34)C(=O)N[C@@H](CO)C(=O)N[C@@H](CCC(=O)O)C(=O)N2)NC(=O)[C@H](CCC(=O)O)NC(=O)[C@H](Cc2ccc(O)cc2)NC(=O)CNC(=O)[C@H](Cc2ccc(O)cc2)NC1=O [K92chemFE W21A] (H-TCPEGWSECGVAIYGYECGRAGCGHFLNSGPNISPYVST-OH; disulfide 2-18, 9-23; N-terminus assumed)
mean stoichiometric ratio (C5 [2]; n = 3 experiments): 0.62
koff (C5 [2]; [5]): 0.00848 s⁻¹
kon (C5 [2]; [5]): 17400 M⁻¹ s⁻¹

554 (TTVHQKTKKTCPRGYHYNDRCDFFNTCRVEECCLNGVVNTYGICEYEGGSATYTYEWYVD; Anti-C5 ultralong CDR-H3) [compound 554]
Specificity (C5 [1]; [4]): Human and Rat
Specificity (rat C5 protein; [4]): Human and Rat

596 (TCPRGYHYNDRCEFFNTCRVEECCLNGVVNTYGICEYEGGSAT; Anti-C5 ultralong CDR-H3 knob domain) [compound 596]
Specificity (C5 [1]; [3]): Human and Rat
Specificity (rat C5 protein; [3]): Human and Rat

CC[C@H](C)[C@@H]1NC(=O)[C@H](C)NC(=O)[C@H](C(C)C)NC(=O)CNC(=O)[C@@H]2CSSC[C@@H](C(=O)NCC(=O)N[C@@H](Cc3c[nH]cn3)C(=O)N[C@@H](Cc3ccccc3)C(=O)N[C@@H](CC(C)C)C(=O)N[C@@H](CC(N)=O)C(=O)N[C@@H](CO)C(=O)NCC(=O)N3CCC[C@H]3C(=O)N[C@@H](CC(N)=O)C(=O)N[C@H](C(=O)N[C@@H](CO)C(=O)N3CCC[C@H]3C(=O)N[C@@H](Cc3ccc(O)cc3)C(=O)N[C@H](C(=O)N[C@@H](CO)C(=O)N[C@H](C(=O)O)[C@@H](C)O)C(C)C)[C@@H](C)CC)NC(=O)CNC(=O)[C@H](Cc3c[nH]cn3)NC(=O)[C@H](CCCNC(=N)N)NC(=O)CNC(=O)[C@H](CSSC[C@H](NC(=O)[C@@H](N)[C@@H](C)O)C(=O)N3CCC[C@H]3C(=O)N[C@@H](CCC(=O)O)C(=O)NCC(=O)N[C@@H](Cc3c[nH]c4ccccc34)C(=O)N[C@@H](CO)C(=O)N[C@@H](CCC(=O)O)C(=O)N2)NC(=O)[C@H](CCC(=O)O)NC(=O)[C@H](Cc2ccc(O)cc2)NC(=O)CNC(=O)[C@H](Cc2ccc(O)cc2)NC1=O [K92chemFE W21H] (H-TCPEGWSECGVAIYGYECGRHGCGHFLNSGPNISPYVST-OH; disulfide 2-18, 9-23; N-terminus assumed)
mean stoichiometric ratio (C5 [2]; n = 3 experiments): 0.69
koff (C5 [2]): 0.000612 s⁻¹
kon (C5 [2]): 425000 M⁻¹ s⁻¹

555 (TTVHQKTKKTCPRGYHYNDRCEFFNTCRVEECCLNGVVNTYGICEYEGGSATYTYEWYVD; Anti-C5 ultralong CDR-H3) [compound 555]
Specificity (C5 [1]; [4]): Human and Rat
Specificity (rat C5 protein; [4]): Human and Rat

CC[C@H](C)[C@@H]1NC(=O)[C@H](C)NC(=O)[C@H](C(C)C)NC(=O)CNC(=O)[C@@H]2CSSC[C@@H](C(=O)NCC(=O)N[C@@H](Cc3c[nH]cn3)C(=O)N[C@@H](C)C(=O)N[C@@H](CC(C)C)C(=O)N[C@@H](CC(N)=O)C(=O)N[C@@H](CO)C(=O)NCC(=O)N3CCC[C@H]3C(=O)N[C@@H](CC(N)=O)C(=O)N[C@H](C(=O)N[C@@H](CO)C(=O)N3CCC[C@H]3C(=O)N[C@@H](Cc3ccc(O)cc3)C(=O)N[C@H](C(=O)N[C@@H](CO)C(=O)N[C@H](C(=O)O)[C@@H](C)O)C(C)C)[C@@H](C)CC)NC(=O)CNC(=O)[C@H](Cc3c[nH]c4ccccc34)NC(=O)[C@H](CCCNC(=N)N)NC(=O)CNC(=O)[C@H](CSSC[C@H](NC(=O)[C@@H](N)[C@@H](C)O)C(=O)N3CCC[C@H]3C(=O)N[C@@H](CCC(=O)O)C(=O)NCC(=O)N[C@@H](Cc3c[nH]c4ccccc34)C(=O)N[C@@H](CO)C(=O)N[C@@H](CCC(=O)O)C(=O)N2)NC(=O)[C@H](CCC(=O)O)NC(=O)[C@H](Cc2ccc(O)cc2)NC(=O)CNC(=O)[C@H](Cc2ccc(O)cc2)NC1=O [K92chemFE F26A] (H-TCPEGWSECGVAIYGYECGRWGCGHALNSGPNISPYVST-OH; disulfide 2-18, 9-23; N-terminus assumed)
mean stoichiometric ratio (C5 [2]; n = 3 experiments): 0.65
koff (C5 [2]): 0.00328 s⁻¹
kon (C5 [2]): 184000 M⁻¹ s⁻¹
